Results on 24 molecules are retold here after patent US12157773 (SYNTHEKINE, dated 2024).

Sequences and labels used below:
T1: mIL27Rα ECD antigen (mouse, UniProt O70394 25-510)
T1 construct: Antigen of biopanning and PE-ELISA; The immunogen was made as a fusion of the ECD (residues 25-510 of the precursor) with the human IgG1 hinge and Fc; also called ECD of mouse IL27Rα; IL27Rα coated on the plate
T1 sequence: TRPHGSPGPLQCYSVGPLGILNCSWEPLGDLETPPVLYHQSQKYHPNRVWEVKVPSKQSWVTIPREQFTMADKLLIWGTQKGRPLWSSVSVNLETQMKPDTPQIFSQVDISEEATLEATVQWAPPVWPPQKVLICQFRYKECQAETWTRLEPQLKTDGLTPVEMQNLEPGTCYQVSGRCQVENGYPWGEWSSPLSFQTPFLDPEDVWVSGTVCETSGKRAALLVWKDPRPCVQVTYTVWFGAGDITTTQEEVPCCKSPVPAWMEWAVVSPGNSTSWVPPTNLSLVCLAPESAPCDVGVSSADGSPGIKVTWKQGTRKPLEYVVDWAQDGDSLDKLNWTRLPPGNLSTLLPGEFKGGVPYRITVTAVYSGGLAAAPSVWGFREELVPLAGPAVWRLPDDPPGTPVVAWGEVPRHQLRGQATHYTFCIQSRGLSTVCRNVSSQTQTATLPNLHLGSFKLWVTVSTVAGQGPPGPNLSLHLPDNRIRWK

T2: hIL27Rα ECD antigen (human, UniProt Q6UWB1 33-516)
T2 construct: Antigen of biopanning and PE-ELISA; also called ECD of the human IL27Rα; IL27Rα coated on the plate
T2 sequence: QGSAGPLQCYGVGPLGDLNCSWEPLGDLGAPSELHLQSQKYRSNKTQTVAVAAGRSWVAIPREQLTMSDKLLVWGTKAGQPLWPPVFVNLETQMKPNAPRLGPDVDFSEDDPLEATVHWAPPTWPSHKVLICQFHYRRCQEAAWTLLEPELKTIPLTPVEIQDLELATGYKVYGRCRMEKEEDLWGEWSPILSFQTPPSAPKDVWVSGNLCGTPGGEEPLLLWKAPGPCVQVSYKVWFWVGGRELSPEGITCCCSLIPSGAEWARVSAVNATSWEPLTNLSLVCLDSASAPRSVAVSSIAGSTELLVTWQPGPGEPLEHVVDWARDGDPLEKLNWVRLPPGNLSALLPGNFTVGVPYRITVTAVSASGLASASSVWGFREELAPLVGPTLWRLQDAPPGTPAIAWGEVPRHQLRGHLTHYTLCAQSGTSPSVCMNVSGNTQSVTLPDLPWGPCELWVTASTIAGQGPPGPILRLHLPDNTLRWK

B1: mIL27Ra VHH1 (VHH)
VHH: QVQLQESGGGSVQAGGSLRLSCAASKNSNFMGWFRQAPGKEREGVAAMMTKNNNTYYADSVKGRFTISHDNAKNTVYLQMDSLKPEDTAVYYCAAVYRTRRLRVLEAANFDYWGQGTQVTVSS
notes: Camel VHH as periplasmic extract of a phage clone in the PE-ELISA; also called anti-mouse IL27Rα VHH; not shown: HA/His tag from the pMECS phagemid
B2: mIL27Ra VHH2 (VHH)
VHH: QVQLQESGGGSVQAGGSLRLSCTASGYTSSRYCMGWFRQTPGKKREGVAAIYTGGGTTFYHGSVKGRFTISQDNTTNTVYLQMHNLKPEDTAMYYCAAGPVTRACDEYNYWGQGTQVTVSS
notes: as for B1
B3: mIL27Ra VHH13 (VHH)
VHH: QVQLQESGGGSVQAGGSLRLSCAASGYSINRMGWFRQAPGKEREGVAAISIGGGRTYYADSVKGRFTISQDNAKNTVDLQMNSLKPEDTAMYYCAAGLVYGEAWLDSRHYNKWGQGTQVTVSS
notes: as for B1
B4: mIL27Ra VHH4 (VHH)
VHH: QVQLQESGGGSVQAGGSLRLSCAASGYSINRMGWFRQAPGKEREGVAAISIGGGQTYYADSVKGRFTISQDNAKNTVDLQMNSLKPEDTAMYYCAAGLVYGEAWLDSRHYNKWGQGTQVTVSS
notes: as for B1
B5: mIL27Ra VHH3 (VHH)
VHH: QVQLQESGGGSVQAGGSLRLSCAGSGYSLSNYCMGWFRQAPGQGREGVASLRFVSGATFYADSVKGRFTIAQDNAKNTLYLQMNSLKPEDTAMYYCGIKSRGICGGRLVDVDFGNWGQGTQVTVSS
notes: as for B1
B6: hIL27Ra VHH17 (VHH)
VHH: QVQLQESGGGLVQPGGSLRLSCAASGFTFSLSGMSWVRQAPGKGLEWVSAISSGGASTYYTDSVKGRFTISRDNAKNMLYLQLNSLKTEDTAMYYCAKGGSGYGDASRMTSPGSQGTQVTVSS
notes: Camel VHH as periplasmic extract of a phage clone in the PE-ELISA; also called anti-human IL27Rα VHH; not shown: HA/His tag from the pMECS phagemid
B7: hIL27Ra VHH24 (VHH)
VHH: QVQLQESGGGLVQPGGSLRLSCAASGFTFSHSGMSWVRQAPGKGLEWVSTINSGGASTYYTDSVKGRFTISRDNAKNMLYLQLNSLKTEDTAMYYCAKGGSGYGDASRMTSPGSQGTQVTVSS
notes: as for B6
B8: hIL27Ra VHH2 (VHH)
VHH: QVQLQESGGGLVQPGGSLRLSCAASGFTFSLSGMSWVRQAPGKGLEWVSAISSGGASTYYTDSVKGRFTISRDNAKNILYLQLNSLKTEDTAMYYCAKGGSGYGDASRMTSPGSQGTQVTVSS
notes: as for B6
B9: hIL27Ra VHH10 (VHH)
VHH: QVQLQESGGGSVQAGGSLRLSCRASGSTYSNYCLGWFRQITGKEREGVAVINWVGGMLYFADSVKGRFTVSQDQAKNTLYLQMNSLKPEDTAMYYCAAESVSSFSCGGWLTRPDRVPYWGQGTQVTVSS
notes: as for B6
B10: hIL27Ra VHH23 (VHH)
VHH: QVQLQESGGGSVQAGGSLRLSCRASRSPYGNYCLGWFRQSTGKEREGVAVINWVGGMLYFADSVKGRFTVSQDHAKNTVTLQMNSLKPEDTAMYYCAAESVSSFSCGGWLTRPDRVPYWGQGTQVTVSS
notes: as for B6
B11: hIL27Ra VHH16 (VHH)
VHH: QVQLQESGGGSVQAGGSLRLSCRASGSTYSNYCLGWFRQITGKEREGVAVINWVGGMLYFADSVKGRFTVSQDQAKNTVYLQMNSLKPEDTAMYYCAAESASSFSCGGWLTRPDRVPYWGQGTQVTVSS
notes: as for B6
B12: hIL27Ra VHH22 (VHH)
VHH: QVQLQESGGGSVQAGGSLRLSCRASGSTYSNYCLGWFRQTTGKEREGVAVINWVGGMLYFADSVKGRFTVSQDQAKNTVYLQMNSLKPEDTAMYYCAAESVSSFSCGGWLTRPDRVPYWGQGTQVTVSS
notes: as for B6
B13: hIL27Ra VHH11 (VHH)
VHH: QVQLQESGGGSVQAGGSLRLSCRASGSTYSNYCLGWFRQSTGKEREGVAVINWVGGMLYFADSVKGRFTVSQDHAKNTVTLQMNSLKPEDTAMYYCAAESVSSFSCGGWLTRPGRVPYWGQGTQVTVSS
notes: as for B6
B14: hIL27Ra VHH12 (VHH)
VHH: QVQLQESGGGSVQAGESLRLSCRASGSTYSNYCLGWFRQITGKEREGVAVINWVGGMLYFADSVKGRFTVSQDQAKNTVYLEMNSLKPEDTAMYYCATESVSSFSCGGWLTRPDRVPYWGQGTQVTVSS
notes: as for B6
B15: hIL27Ra VHH7 (VHH)
VHH: QVQLQESGGGLVQPGGSLRLSCAASGFTFSSYPMSWVRQAPGKGLEWISTISAGGDTTLYADSVKGRFTSSRDNAKNTLYLQLNSLKTEDTAIYYCAKRIDCNSGYCYRRNYWGQGTQVTVSS
notes: as for B6
B16: hIL27Ra VHH20 (VHH)
VHH: QVQLQESGGGLVQPGGSLRLSCAASGFTFSSYPMSWVRQAPGKGLEWVSTISSGGDTTLYADSVKGRFTSSRDNAKNTLYLQLNSLKTEDTAMYYCAKRIDCNSGYCYKRSYWGQGTQVTVSS
notes: as for B6
B17: hIL27Ra VHH8 (VHH)
VHH: QVQLQESGGGSVQVGGSLRLSCAASGFTFSSYPMSWVRQAPGKGLEWISTISAGGDTTLYADSVKGRFTSSRDNAKNTLYLQLNSLKTEDTAIYYCAKRIDCNSGYCYRRNYWGQGTQVTVSS
notes: as for B6
B18: hIL27Ra VHH14 (VHH)
VHH: QVQLQESGGGSVQAGGSLRLSCVASGYVSCDYFLPSWYRQAPGKEREFVSIIDGTGSTSYAASVKGRFTASQDKGKNIAYLQMNSLKPEDTAMYYCKASCVRGRAISEYWGQGTQVTVSS
notes: as for B6
B19: hIL27Ra VHH3 (VHH)
VHH: QVQLQESGGGSVQAGGSLRLSCVASGYVSCDYFLPSWYRQAPGKEREFVSIIDGTGSTSYAASVKGRFTASEDKGKNIAYLQMNSLKPEDTAMYYCKASCVRGRAVSEYWGQGTQVTVSS
notes: as for B6
B20: hIL27Ra VHH18 (VHH)
VHH: QVQLQESGGGSVQAGGSLRLSCVASGYVSCDYFLPSWYRQAPGKEREFVSIIDGTGSTSYAASVKGRFTASQDKGKNIAYLQMNSLKPEDTAMYYCKASCVRGRGISEYWGQGTQVTVSS
notes: as for B6
B21: hIL27Ra VHH5 (VHH)
VHH: QVQLQESGGGSVQAGGSLRLSCTASGYVSCDYFLPSWYRQAPGKEREFVSVIDGTGSTSYAASVKGRFTASQDKGKNIAYLQMNSLKPEDTAMYYCKASCVRGRAISEYWGQGTQVTVSS
notes: as for B6
B22: hIL27Ra VHH13 (VHH)
VHH: QVQLQESGGGSVQAGGSLRLSCVASGYVSCDYFLPSWYRQAPGKEREFVSIIDGTGSTSYAASVKGRFTASQDRGKNIAYLQMNSLKPEDTAMYYCKASCVRGRTISEYWGQGTQVTVSS
notes: as for B6
B23: hIL27Ra VHH4 (VHH)
VHH: QVQLQESGGGLVQPGESLRLSCTASGFTFSNYAMSWVRQAPGKGLEWVSGINVAYGITSYADSVKGRFTISRDNTKNTLYLQLNSLKTEDTAIYYCVKHSGTTIPRGFISYTKRGQGTQVTVSS
notes: as for B6
B24: hIL27Ra VHH6 (VHH)
VHH: QVQLQESGGGLVQPGGSLRLSCAASGFSFSSYAMKWVRQAPGKGLEWVSTISSGGSSTNYADSVKGRFTISRDNAKNTLYLQLNSLKIEDTAMYYCAKAIVPTGATMERGQGTQVTVSS
notes: as for B6

For the first experiment, the target named is T1, mIL27Rα ECD antigen. Nature of the experiment: PE-ELISA, periplasmic extract on antigen-coated plate. The protocol:
(§1) Upon completion of the biopanning of Example 3, three 96-well plates of individual phage clones were isolated in order to perform periplasmic extract ELISA (PE-ELISA) on IL27Rα coated plates to identify positive VHH binders that selectively bound […]. A 96-well plate was coated with IL27Rα and PBS under the same conditions. Next, wells were blocked at 37° C. for 1 h. Then, 100 µl of extracted antibodies was added to each well and incubated for 1 h. Subsequently, 100 µl of anti-tag polyclonal antibody conjugated to HRP was added to each well and incubated at 37° C. for 1 h. Plates were developed with TMB substrate. The reaction was stopped by the addition of H2SO4. Absorbance at 450 nm was read on a microtiter plate reader. […] Positive clones were sequenced, and sequences analyzed to identify unique clonotypes.
On the technique in general: In an ELISA, binding on a coated surface is turned into a signal by an enzyme label.
Regarding B1, the binding result is “binds”.

Consider B2, for which the binding result is “binds”.

In the case of B3, the binding result is reported as “binds”.

As to B4, the binding result is “binds”.

For the molecule B5, the binding result is given as “binds”.

Another experiment has as its target T2, hIL27Rα ECD antigen. The description is as above. As to the method: as §1
With B6, the binding result is “binds”.

As to B7, the binding result is recorded as “binds”.

For the molecule B8, the binding result is “binds”.

Consider B9, for which the binding result was “binds”.

Take B10: the binding result was “binds”.

As for B11, the binding result is recorded as “binds”.

As for B12, the binding result is listed as “binds”.

Regarding B13, the binding result is listed as “binds”.

B14: the binding result is “binds”.

For the molecule B15, the binding result is “binds”.

Take B16: the binding result is on record as “binds”.

For the molecule B17, the binding result is “binds”.

Turning to B18, the binding result is reported as “binds”.

Consider B19, for which the binding result is “binds”.

On to B20, for which the binding result is on record as “binds”.

Regarding B21, the binding result was “binds”.

On to B22, for which the binding result is “binds”.

With B23, the binding result is “binds”.

Consider B24, for which the binding result is given as “binds”.
